US20150071950A1 (SAMSUNG ELECTRONICS, published 2015)
Each block holds one binder with its values, some of them ahead of it.

Key:
[1] = biological target: T1, human c-Met/Fc fusion protein (R&D Systems) (human, UniProt P08581 25-932); experiment: ELISA, hybridoma culture on plate-coated human c-Met/Fc fusion protein
T1 construct: Bought protein; also called c-Met-Fc (#358-MT/CF, R&D Systems); human c-Met/Fc protein; not shown: Fc part of the bought fusion protein
Procedure: The hybridoma cell culture obtained in Reference Example 1.1.2 was added in an amount of 50 μL to each well of the plates and incubated for 1 hour. The cells remaining unreacted were washed out with a sufficient amount of Tris-buffered saline and Tween 20 (TBST). Goat anti-mouse IgG-horseradish peroxidase (HRP) was added to the plates and incubated for 1 hour at room temperature. The plates were washed with a sufficient amount of TBST, followed by reacting the peroxidase with a substrate (OPD). Absorbance at 450 nm was measured on an ELISA reader.

[2] = biological target: T1, human c-Met/Fc fusion protein (R&D …); experiment: SPR, Biacore T100; antibody captured by human Fab capture on CM5 chip, c-Met-Fc as analyte
Procedure: (§1) An examination was made to see whether the antibody-drug conjugates maintain affinity for the antigen.
(§2) Briefly, a human Fab capture (GE Healthcare) was immobilized on CM5 chip (#BR-1005-30, GE) according to the manufacturer's instruction. […] The chip was regenerated with 10 mM Glycine-HCl (pH 1.5). To quantify the affinity, the data obtained above was fitted using BIAevaluation software (GE Healthcare, Biacore T100 evaluation software).

[3] = biological target: T1, human c-Met/Fc fusion protein (R&D …); experiment: SPR, Biacore T100; ADC captured by human Fab capture on CM5 chip, c-Met-Fc as analyte
Procedure: as §1, §2

T1 sequence (P08581 25-932 limits assumed): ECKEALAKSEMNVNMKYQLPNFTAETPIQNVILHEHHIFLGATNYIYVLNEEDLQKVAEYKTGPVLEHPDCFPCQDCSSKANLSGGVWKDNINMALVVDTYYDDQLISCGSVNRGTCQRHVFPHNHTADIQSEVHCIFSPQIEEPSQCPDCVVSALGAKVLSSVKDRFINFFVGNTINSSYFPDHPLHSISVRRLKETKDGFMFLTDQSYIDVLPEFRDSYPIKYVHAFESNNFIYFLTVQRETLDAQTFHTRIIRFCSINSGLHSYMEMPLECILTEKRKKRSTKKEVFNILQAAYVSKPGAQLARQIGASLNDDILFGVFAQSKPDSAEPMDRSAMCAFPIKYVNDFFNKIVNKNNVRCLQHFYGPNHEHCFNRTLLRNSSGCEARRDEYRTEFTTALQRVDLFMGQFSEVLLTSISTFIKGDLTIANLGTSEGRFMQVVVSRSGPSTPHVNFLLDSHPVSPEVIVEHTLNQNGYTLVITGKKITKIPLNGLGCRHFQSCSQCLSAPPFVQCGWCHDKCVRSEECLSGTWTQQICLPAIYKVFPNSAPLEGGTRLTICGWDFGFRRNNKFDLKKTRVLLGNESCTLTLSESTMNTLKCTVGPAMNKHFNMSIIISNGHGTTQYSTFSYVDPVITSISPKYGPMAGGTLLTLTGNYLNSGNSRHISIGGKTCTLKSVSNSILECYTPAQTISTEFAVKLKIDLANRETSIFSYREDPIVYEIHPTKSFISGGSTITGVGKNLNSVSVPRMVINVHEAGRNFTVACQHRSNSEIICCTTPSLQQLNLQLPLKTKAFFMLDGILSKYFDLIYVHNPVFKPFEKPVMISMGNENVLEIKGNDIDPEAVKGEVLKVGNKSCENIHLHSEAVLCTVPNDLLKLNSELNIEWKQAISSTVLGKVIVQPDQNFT

binding result [1]: binds
B1: AbF46, mouse monoclonal antibody to c-Met (hybridoma KCLRF-BP-00220) (antibody, V domains shown)
VH: EVKLVESGGGLVQPGGSLRLSCATSGFTFTDYYMSWVRQPPGKALEWLGFIRNKANGYTTEYSASVKGRFTISRDNSQSILYLQMDTLRAEDSATYYCARDNWFAYWGQGTLVTVSA
VL: DILMTQSPSSLTVSAGEKVTMSCKSSQSLLASGNQNNYLAWHQQKPGRSPKMLIIWASTRVSGVPDRFIGSGSGTDFTLTINSVQAEDLAVYYCQQSYSAPLTFGAGTKLELK
notes: Tested as hybridoma culture supernatant in the selection ELISA; also called mouse antibody AbF46

Kd [2]: 0.058 nM | koff [2]: 3.42e-05 s⁻¹ | kon [2]: 589000 M⁻¹ s⁻¹
B2: anti-c-Met antibody L3-1Y/IgG2 (antibody, V domains shown)
VH: EVQLVESGGGLVQPGGSLRLSCAASGFTFTDYYMSWVRQAPGKGLEWLGFIRNKANGYTTEYSASVKGRFTISRDNSKNTLYLQMNSLRAEDTAVYYCARDNWFAYWGQGTLVTVSS
VL: DIQMTQSPSSLSASVGDRVTITCKSSQSLLASGNQNNYLAWYQQKPGKAPKMLIIWASTRVSGVPSRFSGSGSGTDFTLTISSLQPEDFATYYCQQSYSRPYTFGQGTKVEIKR
notes: also called huAbF46-H4-A1 (IgG2 Fc)

Kd [3]: 0.0998 nM | koff [3]: 3.63e-05 s⁻¹ | kon [3]: 364000 M⁻¹ s⁻¹
B3: antibody-drug conjugate ADC1 (L3-1Y/IgG2 conjugated with docetaxel by amine coupling, feed molar ratio 5; DAR 3.7) (antibody, V domains shown)
VH: EVQLVESGGGLVQPGGSLRLSCAASGFTFTDYYMSWVRQAPGKGLEWLGFIRNKANGYTTEYSASVKGRFTISRDNSKNTLYLQMNSLRAEDTAVYYCARDNWFAYWGQGTLVTVSS
VL: DIQMTQSPSSLSASVGDRVTITCKSSQSLLASGNQNNYLAWYQQKPGKAPKMLIIWASTRVSGVPSRFSGSGSGTDFTLTISSLQPEDFATYYCQQSYSRPYTFGQGTKVEIKR
modifications: docetaxel-succinate (NHS-DTX) coupled to primary amines of lysine residues; sites not stated; DAR 3.7 for the whole antibody
notes: also called ADC (DAR 3.7)
